Test results: patent US20170183403A1 (UNIVERSIT T Z RICH, published 2017)

Legend:
Test in all cases: peptide microarray (RepliTope), 15-mers
Reference peptide no. 2 = target: T1, Reference peptide no. 2
T1 construct: hIL-2 15-mer, first library, on microarray; also called peptide 2
T1 peptide: SSSTKKTQLQLEHLL
Experimental: (§1) Additional incubations are with unrelated antibodies from the same isotype (mouse control IgG2a/lambda and mouse control IgG2a/kappa), and secondary antibodies (anti-mouse IgG (Thermo 84545, label DL650) or anti-mouse IgG (JIR 115-175-072, Label Cy5)) to assess unspecific binding due to the detection antibody. The experiments are performed essentially as described in Maksimov P, et al. 2012, PLoS One 7:e34212. doi:10.1371/journal. pone. 0034212.
(§2) The determination of peptide-antibody binding was performed by RepliTope-analysis where the peptide microarray (triplicate) was incubated with the primary antibody followed by a fluorescently labelled secondary antibody directed against the Fc-part of the primary one. All steps were performed on a TECAN microarray processing station enabling highly reliable and reproducible washing and incubation steps. After performing the incubation steps and subsequent to the final washing steps (to remove the unbound secondary antibodies) the microarrays were dried using a nitrogen stream and scanned in a high resolution microarray scanning system with appropriate wavelength settings. Control incubations were performed with an unrelated antibody having the same isotype to exclude false positive signals.
(§3) The resulting images were analyzed und quantified using spot-recognition software GenePix (Molecular Devices). For each spot, the mean signal intensity was extracted (between 0 and 65535 arbitrary units). For further data evaluation, the MMC2 values were determined. The MMC2 equals the mean value of all three instances on the microarray. Except the coefficient of variation (CV)—standard-deviation divided by the mean value—is larger 0.5, in this case the mean of the two closest values (MC2) is assigned to MMC2.

Reference peptide no. 3 = target: T2, Reference peptide no. 3
T2 construct: hIL-2 15-mer, first library, on microarray; also called peptide 3
T2 peptide: TKKTQLQLEHLLLDL
Experimental: as §1, §2, §3

Reference peptide no. 4 = target: T3, Reference peptide no. 4
T3 construct: hIL-2 15-mer, first library, on microarray; also called peptide 4
T3 peptide: TQLQLEHLLLDLQMI
Experimental: as §1, §2, §3

Reference peptide no. 6 = target: T4, Reference peptide no. 6
T4 construct: hIL-2 15-mer, first library, on microarray; also called peptide 6
T4 peptide: HLLLDLQMILNGINN
Experimental: as §1, §2, §3

Reference peptide no. 7 = target: T5, Reference peptide no. 7
T5 construct: hIL-2 15-mer, first library, on microarray; also called peptide 7
T5 peptide: LDLQMILNGINNYKN
Experimental: as §1, §2, §3

Reference peptide no. 13 = target: T6, Reference peptide no. 13
T6 construct: hIL-2 15-mer, first library, on microarray; also called peptide 13
T6 peptide: TRMLTFKFYMPKKAT
Experimental: as §1, §2, §3

Reference peptide no. 15 = target: T7, Reference peptide no. 15
T7 construct: hIL-2 15-mer, first library, on microarray; also called peptide 15
T7 peptide: KFYMPKKATELKHLQ
Experimental: as §1, §2, §3

Reference peptide no. 18 = target: T8, Reference peptide no. 18
T8 construct: hIL-2 15-mer, first library, parental Cys replaced by Ser, on microarray; also called peptide 18
T8 peptide: ELKHLQSLEEELKPL
Experimental: as §1, §2, §3

Reference peptide no. 20 = target: T9, Reference peptide no. 20
T9 construct: hIL-2 15-mer, first library, parental Cys replaced by Ser, on microarray; also called peptide 20
T9 peptide: SLEEELKPLEEVLNL
Experimental: as §1, §2, §3

Reference peptide no. 21 = target: T10, Reference peptide no. 21
T10 construct: hIL-2 15-mer, first library, on microarray; also called peptide 21
T10 peptide: EELKPLEEVLNLAQS
Experimental: as §1, §2, §3

Reference peptide no. 22 = target: T11, Reference peptide no. 22
T11 construct: hIL-2 15-mer, first library, on microarray; also called peptide 22
T11 peptide: KPLEEVLNLAQSKNF
Experimental: as §1, §2, §3

Reference peptide no. 23 = target: T12, Reference peptide no. 23
T12 construct: hIL-2 15-mer, first library, on microarray; also called peptide 23
T12 peptide: EEVLNLAQSKNFHLR
Experimental: as §1, §2, §3

Reference peptide no. 24 = target: T13, Reference peptide no. 24
T13 construct: hIL-2 15-mer, first library, on microarray; also called peptide 24
T13 peptide: LNLAQSKNFHLRPRD
Experimental: as §1, §2, §3

Reference peptide no. 29 = target: T14, Reference peptide no. 29
T14 construct: hIL-2 15-mer, first library, on microarray; also called peptide 29
T14 peptide: LISNINVIVLELKGS
Experimental: as §1, §2, §3

Reference peptide no. 34 = target: T15, Reference peptide no. 34
T15 construct: hIL-2 15-mer, first library, parental Cys replaced by Ser, on microarray; also called peptide 34
T15 peptide: ETTFMSEYADETATI
Experimental: as §1, §2, §3

Reference peptide no. 36 = target: T16, Reference peptide no. 36
T16 construct: hIL-2 15-mer, first library, on microarray; also called peptide 36
T16 peptide: EYADETATIVEFLNR
Experimental: as §1, §2, §3

Reference peptide no. 38 = target: T17, Reference peptide no. 38
T17 construct: hIL-2 15-mer, first library, parental Cys replaced by Ser, on microarray; also called peptide 38
T17 peptide: ATIVEFLNRWITFSQ
Experimental: as §1, §2, §3

Reference peptide no. 42 = target: T18, Reference peptide no. 42
T18 construct: second library: peptide 10 with F(62) to Ala; also called peptide 42
T18 peptide: INNYKNPKLTRMLTA
Experimental: as §1, §2, §3

Reference peptide no. 43 = target: T19, Reference peptide no. 43
T19 construct: second library: peptide 11 with F(62) to Ala; also called peptide 43
T19 peptide: YKNPKLTRMLTAKFY
Experimental: as §1, §2, §3

Reference peptide no. 45 = target: T20, Reference peptide no. 45
T20 construct: second library: peptide 13 with F(62) to Ala; also called peptide 45
T20 peptide: TRMLTAKFYMPKKAT
Experimental: as §1, §2, §3

Reference peptide no. 52 = target: T21, Reference peptide no. 52
T21 construct: second library: peptide 11 with F(62) and Y(65) to Ala; also called peptide 52
T21 peptide: YKNPKLTRMLTAKFA
Experimental: as §1, §2, §3

Reference peptide no. 56 = target: T22, Reference peptide no. 56
T22 construct: second library: peptide 20 with L(92) to Ala; parental Cys replaced by Ser; also called peptide 56
T22 peptide: SLEEELKPLEEVLNA
Experimental: as §1, §2, §3

Reference peptide no. 57 = target: T23, Reference peptide no. 57
T23 construct: second library: peptide 21 with L(92) to Ala; also called peptide 57
T23 peptide: EELKPLEEVLNAAQS
Experimental: as §1, §2, §3

Reference peptide no. 59 = target: T24, Reference peptide no. 59
T24 construct: second library: peptide 23 with L(92) to Ala; also called peptide 59
T24 peptide: EEVLNAAQSKNFHLR
Experimental: as §1, §2, §3

binding result (Reference peptide no. 2): no binding
binding result (Reference peptide no. 3): no binding
binding result (Reference peptide no. 4): no binding
binding result (Reference peptide no. 6): no binding
binding result (Reference peptide no. 7): no binding
binding result (Reference peptide no. 13): no binding
binding result (Reference peptide no. 15): no binding
binding result (Reference peptide no. 18): no binding
binding result (Reference peptide no. 20): no binding
binding result (Reference peptide no. 21): no binding
binding result (Reference peptide no. 22): no binding
binding result (Reference peptide no. 23): no binding
binding result (Reference peptide no. 24): no binding
binding result (Reference peptide no. 29): no binding
binding result (Reference peptide no. 34): no binding
binding result (Reference peptide no. 36): no binding
binding result (Reference peptide no. 38): no binding
binding result (Reference peptide no. 42): no binding
binding result (Reference peptide no. 43): no binding
binding result (Reference peptide no. 45): no binding
binding result (Reference peptide no. 52): no binding
binding result (Reference peptide no. 56): no binding
binding result (Reference peptide no. 57): no binding
binding result (Reference peptide no. 59): no binding
B1: NARA1 (antibody, mouse IgG2a, kappa, V domains shown)
VH: QVQLQQSGAELVRPGTSVKVSCKASGYAFTNYLIEWVKQRPGQGLEWIGVINPGSGGTNYNEKFKGKATLTADKSSSTAYMQLSSLTSDDSAVYFCARWRGDGYYAYFDVWGAGTTVTVSS
VL: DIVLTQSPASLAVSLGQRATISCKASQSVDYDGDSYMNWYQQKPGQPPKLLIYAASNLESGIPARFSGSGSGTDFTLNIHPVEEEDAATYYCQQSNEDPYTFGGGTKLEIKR
notes: Mouse monoclonal from hybridoma; Isotype controls used were mouse IgG2a; also called anti-IL2 (NARA1) antibody; monoclonal antibody NARA1
